Columns and labels:
Assay in all cases: peptide or protein array; SPOT: 15-mer peptides on cellulose (CAPE) membrane; GST-SH3 domains at 10 μg/ml overnight at 4°C in blocking buffer (TBS, 50 mM Tris/HCl pH 7.6, 150 mM NaCl, Blocking Buffer, 0.15 M sucrose); detected with anti-GST antibody and HRP conjugate
Conditions in all cases: both partners purified
[1] = target: T1, GST-tagged C. albicans Rvs167 SH3 domain (C. albicans, UniProt Q59LF3 382-440)
T1 construct: Rvs167 of Candida albicans, SH3 domain; also called CaRvs167; source: E. coli BL21(DE3), purified (glutathione Sepharose 4B); not shown: GST, N-terminal, kept
T1 sequence: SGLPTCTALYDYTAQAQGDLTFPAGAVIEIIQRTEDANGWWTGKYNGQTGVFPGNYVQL

[2] = target: T2, GST-tagged S. cerevisiae Rvs167 SH3 domain (S. cerevisiae, UniProt P39743 421-482)
T2 construct: Rvs167, S. cerevisiae, SH3 domain; also called ScRvs167; source: E. coli BL21(DE3), purified (glutathione Sepharose 4B); not shown: GST, N-terminal, kept
T2 sequence (P39743 421-482): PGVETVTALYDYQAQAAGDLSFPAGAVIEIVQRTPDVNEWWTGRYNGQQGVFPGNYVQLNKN

[3] = target: T3, GST-tagged S. pombe Rvs167 (Hob1) SH3 domain (S. pombe, UniProt O74352 407-466)
T3 construct: Rvs167 homolog of S. pombe, called Hob1, SH3 domain; also called SpRvs167; source: E. coli BL21(DE3), purified (glutathione Sepharose 4B); not shown: GST, N-terminal, kept
T3 sequence (looked up): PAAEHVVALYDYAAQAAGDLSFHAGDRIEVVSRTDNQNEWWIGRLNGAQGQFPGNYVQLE

Measured: binding result

B1: Type II peptide #66 (SPOT membrane) (peptide)
peptide: SSSSTPPTLPPRRIE
notes: 15-mer of the SH3-SPOT library mined from the S. cerevisiae proteome; In the SPOT library all cysteines were replaced by serines; source: synthetic peptide, SPOT synthesis on cellulose (CAPE) membrane
binds: all assays above

— PMC4466140, “Evolution of the SH3 Domain Specificity Landscape in Yeasts” (PLoS ONE, 2015)
